Assay results: paper PMC4335406

Tests used:
[1] = target: DsLOV, short LOV protein from Dinoroseobacter shibae DFL12T (Dinoroseobacter shibae DFL12T); test: SEC; analytical size-exclusion chromatography; data not shown; conditions not given
[2] = target: DsLOV, short LOV protein from Dinoroseobacter shibae DFL12T (Dinoroseobacter shibae DFL12T); test: small angle X-ray scattering (SAXS); 7.2 and 14.8 mg/ml DsLOV in 10 mM NaH2PO4, 300 mM NaCl, pH 8.0, 10°C; beamline BM29, ESRF

Substance: DsLOV, short LOV protein from Dinoroseobacter shibae DFL12T (natural protein)
- stoichiometry N [1]: 2
- stoichiometry N [2]: 2
